Patent publication US20240409647A1 (SINOMAB BIOSCIENCE, published 2024)

Columns and labels:
[1] = molecular target: T1, human IL-17RB protein (recombinant, R&D systems) (human); test: ELISA, coated receptor; SM17 at 0.00064 µg/mL; well 1
T1 construct: Bought protein; also called hIL17RB
T1 sequence (Q9NRM6 whole entry, looked up): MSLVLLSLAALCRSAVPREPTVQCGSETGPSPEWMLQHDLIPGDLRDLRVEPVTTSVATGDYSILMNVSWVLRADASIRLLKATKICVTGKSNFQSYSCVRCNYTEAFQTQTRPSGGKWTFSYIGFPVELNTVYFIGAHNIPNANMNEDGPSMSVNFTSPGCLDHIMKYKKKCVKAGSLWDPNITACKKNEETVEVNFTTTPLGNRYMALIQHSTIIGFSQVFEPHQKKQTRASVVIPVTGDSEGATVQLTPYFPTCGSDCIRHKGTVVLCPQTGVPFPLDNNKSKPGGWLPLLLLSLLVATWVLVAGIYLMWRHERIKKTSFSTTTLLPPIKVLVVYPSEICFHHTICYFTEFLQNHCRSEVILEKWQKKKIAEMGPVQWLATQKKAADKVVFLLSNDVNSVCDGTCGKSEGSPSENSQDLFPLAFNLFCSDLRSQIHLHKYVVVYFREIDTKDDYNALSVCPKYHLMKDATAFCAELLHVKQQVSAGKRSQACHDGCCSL

[2] = molecular target: T2, human IL-17 receptor subunit A (human, UniProt Q96F46 33-320); test: as above
T2 construct: also called IL17RA; hIL17RA

[3] = molecular target: T3, human IL-17 receptor subunit C (human, UniProt Q8NAC3-2 21-467, limits assumed); test: as above
T3 construct: also called IL17RC; hIL17RC
T3 sequence (looked up): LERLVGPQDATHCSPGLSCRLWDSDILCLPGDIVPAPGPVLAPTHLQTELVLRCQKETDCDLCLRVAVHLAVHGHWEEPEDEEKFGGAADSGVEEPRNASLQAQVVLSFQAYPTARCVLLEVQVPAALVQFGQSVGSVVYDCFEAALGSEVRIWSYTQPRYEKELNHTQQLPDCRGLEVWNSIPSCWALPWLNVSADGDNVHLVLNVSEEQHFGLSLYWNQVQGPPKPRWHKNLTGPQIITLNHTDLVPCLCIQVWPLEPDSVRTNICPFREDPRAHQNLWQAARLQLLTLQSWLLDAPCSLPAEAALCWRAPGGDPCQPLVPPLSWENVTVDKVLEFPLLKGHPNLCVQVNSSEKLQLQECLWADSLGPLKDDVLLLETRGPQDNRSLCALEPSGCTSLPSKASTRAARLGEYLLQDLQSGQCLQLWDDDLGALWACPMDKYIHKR

[4] = molecular target: T4, human IL-17 receptor subunit E (human, UniProt Q8NFR9 24-454, limits assumed); test: as above
T4 construct: also called hIL17RE
T4 sequence (looked up): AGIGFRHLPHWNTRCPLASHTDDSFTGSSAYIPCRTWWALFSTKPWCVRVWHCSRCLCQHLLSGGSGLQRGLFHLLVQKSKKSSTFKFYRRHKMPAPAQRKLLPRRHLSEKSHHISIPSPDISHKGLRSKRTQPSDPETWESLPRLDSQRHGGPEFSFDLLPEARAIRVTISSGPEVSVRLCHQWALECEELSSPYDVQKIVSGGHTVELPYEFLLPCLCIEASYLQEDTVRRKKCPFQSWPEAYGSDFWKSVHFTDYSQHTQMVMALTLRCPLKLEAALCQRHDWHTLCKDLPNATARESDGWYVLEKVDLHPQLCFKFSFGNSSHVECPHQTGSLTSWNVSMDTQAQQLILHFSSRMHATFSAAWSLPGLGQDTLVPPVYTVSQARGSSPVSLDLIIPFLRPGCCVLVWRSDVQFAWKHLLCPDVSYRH

[5] = molecular target: T5, human TSLP (R&D systems) (human, UniProt Q969D9 29-159); test: BLI (Octet RED96), binder captured via anti-human Fab CH1, TSLP in solution
T5 construct: also called thymic stromal lymphopoietin
Description: Biosensors immobilized with irrelevant antibody (SM03, anti-human CD22 chimeric IgG1 antibody, SinoMab BioScience Limited, 20 μg/mL) were used as control reference.

[6] = molecular target: T1, human IL-17RB protein (recombinant, R&D …); test: BLI (Octet RED96), SM17 captured via anti-human Fab CH1, IL17RB in solution; trial 1
Excerpt: (§1) Irrelevant antibody (SM03, anti-human CD22 chimeric IgG1 antibody, SinoMab BioScience Limited) was used as the control reference.

[7] = molecular target: T6, cynomolgus monkey IL-17RB protein (recombinant, R&D systems) (cynomolgus monkey, UniProt A0A2K5TUK1 18-289); test: as above
T6 construct: also called cynomolgus IL17RB; Cyno-IL17RB
T6 sequence: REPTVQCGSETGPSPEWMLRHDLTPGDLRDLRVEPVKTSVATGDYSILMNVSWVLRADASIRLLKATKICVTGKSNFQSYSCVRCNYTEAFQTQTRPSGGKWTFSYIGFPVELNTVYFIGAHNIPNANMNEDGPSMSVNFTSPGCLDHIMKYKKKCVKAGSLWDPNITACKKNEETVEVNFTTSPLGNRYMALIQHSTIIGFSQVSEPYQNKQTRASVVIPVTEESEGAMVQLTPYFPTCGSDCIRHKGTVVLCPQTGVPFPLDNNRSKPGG
Excerpt: as §1

B1: SM17 (antibody, human IgG4 S228P, kappa, V domains shown)
VH: QVQLVQSGAEVKKPGASVKVSCKASGYTFISYWMNWVRQAPGQGLEWMGRIDPYDSEIQYNQKFKDRVTMTRDTSISTAYMELSRLRSDDTAVYYCARSGGFDWFAYWGQGTLVTVSS
VL: DIQMTQSPSSLSASVGDRVTITCRASENINSNLAWYQQKPGKAPKLLLYDVTNLADGVPSRFSGSGSGTDYTLTISSLQPEDFATYYCQHFWGPPYTFGGGTKVEIKR
notes: other paragraphs and claim 15 call the same entries VH and VL; also called humanized anti-IL17RB monoclonal antibody
OD 450 nm Absorption [1]: 0.13 OD450 | OD 450 nm Absorption [2]: 0 OD450 | OD 450 nm Absorption [3]: 0.13 OD450 | OD 450 nm Absorption [4]: 0.09 OD450 | Kd [5]: 100 nM | koff [5]: 0.001 s⁻¹ | Kd [6]: 0.194 nM | koff [6]: 4.3e-05 s⁻¹ | kon [6]: 222000 M⁻¹ s⁻¹ | Kd [7]: 0.852 nM | koff [7]: 2.73e-05 s⁻¹ | kon [7]: 32100 M⁻¹ s⁻¹
